Measurements published in patent US20120301468A1, “ANTI-MN ANTIBODIES AND METHODS OF USING SAME” (BAYER HEALTHCARE LLC, priority 2005, published 2012).

Target: human MN protein, entire extra-cellular domain with a C-terminal histag, expressed in HKB-11 cells (human), Q16790
Assay: SPR, BIAcore 3000, IgG captured by anti-human IgG Fc, MN as analyte, 1:1 Langmuir fit
Details: remark: other sources report otherwise

B1: 3a4 full-length human IgG1 (antibody, V domains shown)
VH: QVELVESGGGLVQPGGSLRLSCAASGFTFSDYSINWVRQAPGKGLEYVSNISYSGSSTYYADSVKGRFTISRDNSKNTLYLQMNSLRAEDTAVYYCARFKYSGGSDSWGQGTLVTVSS
VL: DIELTQPPSVSVAPGQTARISCSGDNLPDFYVHWYQQKPGQAPVLVISEDNKRPSGIPERFSGSNSGNTATLTISGTQAEDEADYYCSTYGYTYSYSVFGGGTKLTVL
  Kd: 1 nM
